Assay [1] deals with T1, Human Epidermal Growth Factor Receptor 3 (HER3), soluble antigen (human, UniProt P21860 20-643, limits assumed).
T1 construct: also called b-HER3; b-HER3-HIS
Description: affinity of the HER3 binding region in the IgG-Fab; method not named on the sheet or in the legend.

Assay [2] has as its target T2, EGFR (UniProt P00533 25-645, limits assumed).
T2 construct: also called Antigen 1
Description: affinity of the EGFR binding region in the IgG-Fab; method not named on the sheet or in the legend.

Assay [3] concerns the target T2, EGFR. The description is as above. This is another data set of the same source.
The target in assay [4] is T3, Human Epidermal Growth Factor Receptor 2 (HER2), soluble antigen (human, UniProt P04626 23-652, limits assumed).
T3 construct: also called b-HER2; b-HER2-HIS
In words: affinity of the HER2 binding region in the IgG-Fab; method not named on the sheet or in the legend.

Like-named read-outs stand apart in the source and are kept apart here.

B1: N-terminal EGFR::C-terminal HER3 multispecific antibody analog (Analog 3) (bispecific antibody, human IgG1, kappa)
heavy: not shown
light: DIQLTQSPSSVSASVGDRVTITCRASQDISSWLAWYQQKPGKAPKLLIYAASSLQSGVPSRFSGSGSGTDFTLTISSLQPEDFATYYCQQEHDFPWTFGGGTKVEIKRTVAAPSVFIFPPSDEQLKSGTASVVCLLNNFYPREAKVQWKVDNALQSGNSQESVTEQDSKDSTYSLSSTLTLSKADYEKHKVYACEVTHQGLSSPVTKSFNRGEC
notes: IgG-Fab 2+2 format: EGFR VH-CH1-hinge-CH2-CH3-(G4S)3-HER3 VH-CH1, two copies, with four copies of the common light chain; also called N-term-EGFR::C-term-HER3; EGFR-HER3 IgG-Fab
For B1, the Kd in assay [1] amounted to 0.049 nM; with EGFR [2], 0.29 nM.

B2: N-terminal HER3::C-terminal EGFR multispecific antibody analog (Analog 4) (bispecific antibody, human IgG1, kappa)
heavy: not shown
light: DIQLTQSPSSVSASVGDRVTITCRASQDISSWLAWYQQKPGKAPKLLIYAASSLQSGVPSRFSGSGSGTDFTLTISSLQPEDFATYYCQQEHDFPWTFGGGTKVEIKRTVAAPSVFIFPPSDEQLKSGTASVVCLLNNFYPREAKVQWKVDNALQSGNSQESVTEQDSKDSTYSLSSTLTLSKADYEKHKVYACEVTHQGLSSPVTKSFNRGEC
notes: IgG-Fab 2+2 format: HER3 VH-CH1-hinge-CH2-CH3-(G4S)3-EGFR VH-CH1, two copies, with four copies of the common light chain; also called N-term-HER3::C-term-EGFR; HER3-EGFR IgG-Fab
Consider B2, for which the figures for the Kd (in assay [1]; in the assay with EGFR [2]) were 0.049 nM and 0.87 nM, respectively.

B3: N-terminal-EGFR::C-terminal HER2 multispecific antibody analog (Analog 1) (bispecific antibody)
heavy: not shown
light: DIQLTQSPSTLSASVGDRVTITCRASQAISSWLAWYQQKPGKAPKLLIYDASSLESGVPSRFSGSGSGTEFTLTISSLQPDDFATYYCHQYQSYSWTFGGGTKVEIKRTVAAPSVFIFPPSDEQLKSGTASVVCLLNNFYPREAKVQWKVDNALQSGNSQESVTEQDSKDSTYSLSSTLTLSKADYEKHKVYACEVTHQGLSSPVTKSFNRGEC
notes: IgG-Fab 2+2 format: EGFR VH-CH1-hinge-CH2-CH3-(G4S)3-HER2 VH-CH1, two copies, with four copies of the common light chain; also called N-term-EGF::C-term-HER2; EGFR-HER2 IgG-Fab
On to B3, for which the Kd with EGFR [3] turned out to be 0.17 nM; in assay [4] it was 8.2 nM.

B4: N-terminal HER2::C-terminal EGFR multispecific antibody analog (Analog 2) (bispecific antibody, human IgG1, kappa)
heavy: not shown
light: DIQLTQSPSTLSASVGDRVTITCRASQAISSWLAWYQQKPGKAPKLLIYDASSLESGVPSRFSGSGSGTEFTLTISSLQPDDFATYYCHQYQSYSWTFGGGTKVEIKRTVAAPSVFIFPPSDEQLKSGTASVVCLLNNFYPREAKVQWKVDNALQSGNSQESVTEQDSKDSTYSLSSTLTLSKADYEKHKVYACEVTHQGLSSPVTKSFNRGEC
notes: IgG-Fab 2+2 format: HER2 VH-CH1-hinge-CH2-CH3-(G4S)3-EGFR VH-CH1, two copies, with four copies of the common light chain; also called N-term-HER2::C-term-EGFR; HER2-EGFR IgG-Fab
As for B4, the Kd in the assay with EGFR [3] turned out to be 0.47 nM; in assay [4] it was 0.1 nM.

For orientation: Kd means the constant that tells how readily two partners part at equilibrium. A higher Kd goes with weaker binding.

The values above are taken from patent US20170022291A1 (Adimab, published 2017).
